Assay [1] deals with T1, human beta klotho protein (soluble, used in Biacore) (human, UniProt Q86Z14 53-997, limits assumed).
T1 construct: also called HuKLB; huKLB
T1 sequence: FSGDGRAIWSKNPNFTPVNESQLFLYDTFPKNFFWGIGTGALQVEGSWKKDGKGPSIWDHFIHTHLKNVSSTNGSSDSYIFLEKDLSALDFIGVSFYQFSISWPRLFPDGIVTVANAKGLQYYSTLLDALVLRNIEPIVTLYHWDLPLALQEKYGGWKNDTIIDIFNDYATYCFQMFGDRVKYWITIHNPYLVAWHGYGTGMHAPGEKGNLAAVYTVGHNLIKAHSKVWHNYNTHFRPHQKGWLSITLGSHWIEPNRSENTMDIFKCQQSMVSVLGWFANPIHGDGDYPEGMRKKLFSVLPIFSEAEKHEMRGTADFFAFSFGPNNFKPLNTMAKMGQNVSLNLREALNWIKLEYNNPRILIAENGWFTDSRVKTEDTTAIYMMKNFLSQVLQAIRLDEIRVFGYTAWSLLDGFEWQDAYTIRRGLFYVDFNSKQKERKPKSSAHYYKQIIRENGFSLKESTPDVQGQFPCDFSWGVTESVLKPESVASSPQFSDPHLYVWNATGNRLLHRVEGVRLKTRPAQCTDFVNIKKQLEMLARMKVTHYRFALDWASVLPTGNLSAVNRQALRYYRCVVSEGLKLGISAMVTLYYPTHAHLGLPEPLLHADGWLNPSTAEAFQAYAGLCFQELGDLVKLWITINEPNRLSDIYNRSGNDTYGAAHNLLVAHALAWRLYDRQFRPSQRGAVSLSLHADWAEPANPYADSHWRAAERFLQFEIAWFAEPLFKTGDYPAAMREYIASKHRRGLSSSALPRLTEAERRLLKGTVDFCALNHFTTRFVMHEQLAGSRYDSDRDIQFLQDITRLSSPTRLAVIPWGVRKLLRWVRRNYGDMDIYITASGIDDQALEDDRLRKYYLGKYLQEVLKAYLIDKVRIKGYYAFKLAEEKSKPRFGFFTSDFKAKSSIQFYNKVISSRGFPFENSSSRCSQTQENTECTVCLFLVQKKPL
Nature of the assay: Biacore SPR (as in Example 2).

Assay [2] deals with T2, cynomolgus monkey beta klotho protein (soluble, used in Biacore) (cynomolgus monkey (Macaca fascicularis), UniProt Q86Z14 53-996 (human entry), limits assumed).
T2 construct: Protein in solution; also called Cyno KLB; cyKLB
T2 chain: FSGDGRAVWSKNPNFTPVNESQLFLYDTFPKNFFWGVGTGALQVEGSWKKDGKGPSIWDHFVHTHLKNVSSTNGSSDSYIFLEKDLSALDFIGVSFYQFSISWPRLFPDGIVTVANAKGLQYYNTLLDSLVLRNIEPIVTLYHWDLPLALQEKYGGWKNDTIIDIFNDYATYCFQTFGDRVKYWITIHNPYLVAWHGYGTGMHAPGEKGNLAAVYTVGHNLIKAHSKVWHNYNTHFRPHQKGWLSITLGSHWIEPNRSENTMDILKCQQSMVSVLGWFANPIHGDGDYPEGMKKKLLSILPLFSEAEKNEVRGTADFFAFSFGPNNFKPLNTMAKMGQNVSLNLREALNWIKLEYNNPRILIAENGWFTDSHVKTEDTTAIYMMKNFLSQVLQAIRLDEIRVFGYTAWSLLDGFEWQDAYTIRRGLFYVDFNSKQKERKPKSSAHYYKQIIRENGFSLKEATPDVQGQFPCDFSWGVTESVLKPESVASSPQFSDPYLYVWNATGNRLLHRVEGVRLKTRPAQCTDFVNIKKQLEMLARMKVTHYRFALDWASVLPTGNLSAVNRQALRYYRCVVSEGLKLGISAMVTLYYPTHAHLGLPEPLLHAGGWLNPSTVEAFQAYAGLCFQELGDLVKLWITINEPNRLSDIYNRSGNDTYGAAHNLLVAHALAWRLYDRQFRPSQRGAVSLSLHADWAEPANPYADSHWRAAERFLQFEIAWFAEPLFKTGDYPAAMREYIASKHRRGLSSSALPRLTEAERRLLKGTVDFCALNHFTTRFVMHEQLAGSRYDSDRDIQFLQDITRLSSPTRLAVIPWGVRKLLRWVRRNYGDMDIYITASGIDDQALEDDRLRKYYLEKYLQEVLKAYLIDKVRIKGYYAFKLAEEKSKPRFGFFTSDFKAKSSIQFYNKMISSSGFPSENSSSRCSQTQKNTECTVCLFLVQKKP
Nature of the assay: Biacore SPR (as in Example 2).

B1: antibody 5H23 (antibody, V domains shown)
VH: QVQLQQSGPELVKPGALVKISCKASGYTFTSYDINWVKQRPGQGLEWIGWIYPGDGSTKYNEKFKGKATLTADKSSRTAYMQLSSLTSENSAVYFCARSDYYGSRSFAYWGQGTLVTVSA
VL: DIVLTQSPASLAVSLGQRATISCRASKSVSTSGYVYMHWNQQKPGQPPKLLIYLASYLESGVPARFSGSGSGTDFTLNIHPVEEEDAAIYYCQHSRDLTFPFGGGTKLEIK
notes: Murine monoclonal antibody from hybridoma; also called 5H23-Alexa647 (labelled form)
For the molecule B1, the Kd stood at 0.05 nM in assay [1] and 0.7 nM in assay [2].

These data come from patent US20210030857A1 (NGM BIOPHARMACEUTICALS, published 2021).
